The results in this text go back to the supplement of paper PMC12042874.

± gives the uncertainty stated by the source.

A short description of the series: amyloid nucleation score (Sup35N fusion, yeast selection) (log enrichment); library NNK2; higher = more nucleation; inactive = no reads after selection. The method, boiled down:
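Plasmid inserts were Illumina-sequenced at input and output from psi-negative yeast expressing Sup35N fused to peptides of 20 random codons. The yeast were induced with 100 μM copper sulfate for 24 hours and grown 7 days at 30°C on medium lacking adenine and uracil, and sequences with under 100 input reads were excluded. Nucleation score is the DiMSum log enrichment of output over input reads, centred on the mode score of non-aggregating sequences.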
Consider NHRKVLMVVVLAVHNMGCCI, for which the amyloid nucleation score was 3.75 ± 0.15.

QLKSFR: the amyloid nucleation score entry is “inactive”.

For the substance FKWALFG, the amyloid nucleation score entry was “inactive”.

The substance AELLYMFWACNFSWSMPL showed an amyloid nucleation score of -0.986 ± 0.76.

As for SMNSLSIVYLDYASGAWMDL, the amyloid nucleation score is -0.127 ± 0.49.

Take VIFVRYWGVDYHLADLVIN: the amyloid nucleation score is -0.563 ± 0.55.

As to IKRSTNISEMWHYSFGVTVL, the amyloid nucleation score was -1.09 ± 0.63.

As to VLHCHWTGFSRSTCVHLVHF, the amyloid nucleation score was determined as 3.63 ± 0.084.

On to GPCGVVVNFHRSCFCRFEFL, for which the amyloid nucleation score was determined as 7.61 ± 0.082.

Substance WSMVQLPFSFIYPRGYLNMG returned an amyloid nucleation score of -0.615 ± 0.64.

With NYDGCRWWW, the amyloid nucleation score entry was “inactive”.

Turning to GCKNR, the amyloid nucleation score came to 0.226 ± 0.51.

On to GLESFGDYSVKIPLGDLFGP, for which the amyloid nucleation score was -0.025 ± 0.3.

Turning to YMYFVFIRSSKSVMIKDVHC, the amyloid nucleation score entry was “inactive”.

The substance TNDMVDHVRRSNHDI displayed an amyloid nucleation score of 0.871 ± 0.31.

KLNNVRLGGERFDLRTLGLR came in with an amyloid nucleation score of -0.104 ± 0.42.

In turn, SYNDWGFMKVGCL displayed an amyloid nucleation score of -0.686 ± 0.39.

With CDHVVVIIIVGWGAEGE, the amyloid nucleation score was found to be 0.512 ± 0.25.

With TSNRTTNSLLMCDKLRNTSV, the amyloid nucleation score was -0.345 ± 0.25.

Turning to AQFVKWAVNLLGSRYSWYEQ, the amyloid nucleation score entry is “inactive”.

On to WKSLGNSAVVIRLAS, for which the amyloid nucleation score was -0.453 ± 1.1.

With AIASLTRTFSA, the amyloid nucleation score is 0.167 ± 0.42.

For the substance LNSRS, the amyloid nucleation score is -0.436 ± 0.76.

Turning to TIIRDFSWLHLGFPRACIIT, the amyloid nucleation score was -0.976 ± 0.64.

Substance FISTGRRQTFQTRTRSNLWV had an amyloid nucleation score of 0.195 ± 0.37.

In turn, GDTPGSLYCNLISEGAI registered an amyloid nucleation score of 0.119 ± 0.76.

KLDTLRFCVGAHLGTPTLCW gave an amyloid nucleation score of 0.499 ± 0.34.

The substance ARNRSSIKWGRGSDYGFTEL showed an amyloid nucleation score of 0.451 ± 0.65.

Regarding VMFILVYTLFP, the amyloid nucleation score came to 0.068 ± 0.65.

VLLSITSRRVMPTSKI showed an amyloid nucleation score of 0.594 ± 0.81.

In the case of NMMISCVNTLADDVFRGGFV, the amyloid nucleation score is -1.33 ± 0.31.

In the case of SQHGVKNLSSRFESLIA, the amyloid nucleation score was -0.197 ± 0.79.

Substance LVLIFMDLSTGWLLSSISDI had an amyloid nucleation score of 2.33 ± 0.066.

LVKNSIKRGYL: the amyloid nucleation score result was “inactive”.

Turning to NFKNATIAFIGNMTMIVPRG, the amyloid nucleation score came to 8.291 ± 0.038.

ALIGLWVGKPFPGGMLVLFM yielded an amyloid nucleation score of 0.24 ± 0.3.

LFSMSL yielded an amyloid nucleation score of -1.27 ± 1.

For the substance RISIPS, the amyloid nucleation score result was “inactive”.

With PVRSRWPFSSSLAAVTTYRV, the amyloid nucleation score was found to be 1.26 ± 0.41.

Regarding LRPLL, the amyloid nucleation score was -0.912 ± 0.93.

KNDGEVMKSVFKDRHCCART registered an amyloid nucleation score of -0.565 ± 0.48.

LELMEYPL registered an amyloid nucleation score of -0.153 ± 0.45.

The substance WNFFLGMAIMGLRRSCL had an amyloid nucleation score of 4.1 ± 0.068.

As for QSLSSYHLNFSALRSVPWP, the amyloid nucleation score turned out to be 0.043 ± 0.38.

Turning to RFCAMTYERLCVFVIF, the amyloid nucleation score was determined as 0.197 ± 0.4.

As for ANTWVKHTLCVGRLQGDWGI, the amyloid nucleation score is -0.029 ± 0.42.

EVNRAPNVSIVYRRNSGTAD: the amyloid nucleation score was -0.154 ± 0.4.

Substance SCSERLSMWLRED yielded an amyloid nucleation score of 4.62 ± 0.047.

For the substance RDISIMHRRRMNGLFNY, the amyloid nucleation score entry was “inactive”.

NKGSPCISCFVENDLYYLKY yielded an amyloid nucleation score of -0.707 ± 0.42.

As for VQGTL, the amyloid nucleation score was -0.718 ± 0.39.

NCWVVSQYTVVN showed an amyloid nucleation score of -0.77 ± 0.79.

TLNMNVSFPIRRAHIYEMLI showed an amyloid nucleation score of 0.83 ± 0.48.

RDSQWGLSRKDFSHACVLTY: the amyloid nucleation score is -0.408 ± 0.48.

On to CRSTGIDIIYYHISFFLYIW, for which the amyloid nucleation score result was “inactive”.

In turn, AGRNIGIHIVGLDRQRSSAN registered an amyloid nucleation score of 0.278 ± 0.31.

The substance QSYMSGKYVVLVQRGEVFSF displayed an amyloid nucleation score of -1.21 ± 0.49.

VHLANSMLY returned an amyloid nucleation score of 3.15 ± 0.047.

CYIFYS: the amyloid nucleation score result is “inactive”.

In turn, LDRYLG registered an amyloid nucleation score of 0.064 ± 0.3.

Consider TCQPGRLALNAKERGSGDRL, for which the amyloid nucleation score amounted to 0.482 ± 0.3.

Take SMTVKDSGFMSIFGFSTVRL: the amyloid nucleation score was -0.854 ± 0.48.

EPDELPYLLKASLMSLGHGP displayed an amyloid nucleation score of 4.64 ± 0.073.

Consider QFNFCKLAGQPLMFEFIDGV, for which the amyloid nucleation score was 5.58 ± 0.059.

Consider KSSVELWTFERA, for which the amyloid nucleation score worked out at 1.14 ± 0.33.

FTESCQCS came in with an amyloid nucleation score of -0.08 ± 0.31.

Substance VDKLGKLEVYSWLYWV came in with an amyloid nucleation score of -1.86 ± 0.55.

As to VTKVCGYLEFSMQVYRCVFH, the amyloid nucleation score entry was “inactive”.

For LNSSLLFHNLMVHH, the amyloid nucleation score entry is “inactive”.

For DYCLSSICFLIDVGESFERG, the amyloid nucleation score turned out to be 0.171 ± 0.44.

VCQVFVNGVSSDRVAVLVVI gave an amyloid nucleation score of 5.25 ± 0.059.

Regarding RILLLDLRYYCTTP, the amyloid nucleation score result is “inactive”.

Turning to CWFMYPSMIDWWSMTSRECF, the amyloid nucleation score was -0.129 ± 0.18.

In turn, VSQVMLSK returned an amyloid nucleation score of 0.626 ± 0.24.

YSYEHTRWTSLGGWHLR: the amyloid nucleation score was 4.66 ± 0.069.

In turn, RTVGLSHIIICN registered an amyloid nucleation score of 0.089 ± 0.5.

Consider GYRLGHRRGGFGVLNGFYGD, for which the amyloid nucleation score is -0.157 ± 0.79.

Consider EWCQFIR, for which the amyloid nucleation score is -0.199 ± 0.19.

DLEVLSLGGINFFVVDTFMI displayed an amyloid nucleation score of 0.964 ± 0.28.

On to LIYNVDSVMNFVRVDNYDSP, for which the amyloid nucleation score amounted to 6.88 ± 0.087.

As to VARRGALNVRHFFPGKREV, the amyloid nucleation score worked out at 0.608 ± 0.47.

Regarding LLLPLFII, the amyloid nucleation score result is “inactive”.

WMKFTWWRHEYYVVS had an amyloid nucleation score of -0.195 ± 0.79.

SLFTYGVISDHMGNMVPWND: the amyloid nucleation score is -0.352 ± 1.1.

Regarding LVFFSLDFYYRGWHRDWIAG, the amyloid nucleation score was -1.26 ± 0.64.

The substance WTFLIIIWYLDIVV came in with an amyloid nucleation score of -1.76 ± 0.48.

In turn, FSSSNSIFKFVLNVRCTGVK had an amyloid nucleation score of 5.045 ± 0.049.

Take RRAWGFLVMRVGTDPMMTGI: the amyloid nucleation score was determined as 0.196 ± 0.37.

Take CNHFMTFRWWLVEQAGSMLA: the amyloid nucleation score was 0.044 ± 1.1.

In the case of HRRVVAPNKCWMSLACFWDL, the amyloid nucleation score was determined as 4.33 ± 0.053.

Consider WCRAWGDFIMVKSLGLKCIA, for which the amyloid nucleation score was -0.1 ± 0.49.

Substance IARFSKKTSVSMGTRCAT came in with an amyloid nucleation score of 0.122 ± 0.3.

Substance RSILEM came in with an amyloid nucleation score of -0.302 ± 0.61.

Substance GIMGDGGGHALWTEEELKVR gave an amyloid nucleation score of 1.01 ± 0.23.

VIDHLRCIETSVWGVVVWRI gave an amyloid nucleation score of -0.148 ± 0.35.

In turn, SESDSTLRSTIDSRLCGS gave an amyloid nucleation score of -0.53 ± 0.55.

For the substance PMVFNHG, the amyloid nucleation score was -0.398 ± 1.

For YGDMAVFVG, the amyloid nucleation score was determined as 1.07 ± 0.41.

SWVTSYERLRLPLNCMSNDQ came in with an amyloid nucleation score of -0.452 ± 0.42.

In the case of LVAIDSAFCTLGMPSADPVS, the amyloid nucleation score was -0.097 ± 0.25.

In turn, SVSYSGDNH registered an amyloid nucleation score of -0.177 ± 1.

Substance KSMKEFSKFVLMSAP returned an amyloid nucleation score of 0.192 ± 0.46.

On to LTTSIL, for which the amyloid nucleation score was -1.06 ± 0.39.

For the substance FCMVGLCMCGRQEMCGSTDS, the amyloid nucleation score stood at 5.99 ± 0.062.
